{
  "source": "patent US20220119534A1",
  "about": "(DRAGONFLY THERAPEUTICS, published 2022)",
  "key": {"[1]": {"target": "T1, Human CD16a F158 (FcγRIIIa F158) (human, UniProt P08637 17-208, biotinylated)", "T1 construct": "Bought recombinant receptor; also called hFcγRIIIa F158", "T1 sequence (P08637 17-208 limits assumed)": "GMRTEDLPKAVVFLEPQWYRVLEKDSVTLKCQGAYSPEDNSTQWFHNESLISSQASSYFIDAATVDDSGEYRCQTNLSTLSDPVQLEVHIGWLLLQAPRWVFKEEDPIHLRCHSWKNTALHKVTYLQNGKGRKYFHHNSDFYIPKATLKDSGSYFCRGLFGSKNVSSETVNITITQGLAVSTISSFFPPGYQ", "assay": "SPR 25C, steady-state fit, average"}, "[2]": {"target": "T2, Human CLEC12A-His (recombinant, K244 WT) (human, UniProt Q5QGZ9 65-265)", "T2 construct": "Made in house (Dragonfly Tx); also called hCLEC12A; hCLEC12A-His; not shown: His tag", "T2 sequence": "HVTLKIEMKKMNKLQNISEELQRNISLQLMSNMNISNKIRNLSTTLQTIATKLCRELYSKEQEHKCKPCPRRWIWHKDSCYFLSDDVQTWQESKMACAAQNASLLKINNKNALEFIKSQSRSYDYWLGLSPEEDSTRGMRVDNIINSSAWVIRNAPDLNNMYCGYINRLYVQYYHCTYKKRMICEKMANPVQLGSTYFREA", "assay": "SPR, two-state fit (ka1); after forced oxidation"}, "[3]": {"target": "T3, Human CLEC12A expressed on cells (Ba/F3-hCLEC12A, PL21, HL60) (human, UniProt Q5QGZ9 1-265)", "T3 sequence": "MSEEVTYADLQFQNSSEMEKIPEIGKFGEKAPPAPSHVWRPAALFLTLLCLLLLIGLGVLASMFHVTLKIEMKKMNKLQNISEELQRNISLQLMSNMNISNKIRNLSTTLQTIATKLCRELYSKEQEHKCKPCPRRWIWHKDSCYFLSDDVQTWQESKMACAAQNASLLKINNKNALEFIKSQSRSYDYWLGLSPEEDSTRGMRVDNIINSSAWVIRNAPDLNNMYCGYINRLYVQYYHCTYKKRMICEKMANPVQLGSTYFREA", "assay": "cell-based or functional assay"}, "[4]": {"target": "T2, Human CLEC12A-His (recombinant, K244 WT)", "assay": "SPR, two-state fit (ka1); after 4 wks 40C in HST pH 6.0", "experimental": "Briefly, human Fc specific antibodies were covalently immobilized at a density ˜8000-10000 resonance units (RU) on carboxy methyl dextran matrix of a CM5 biosensor chip via amine-coupling chemistry to create an anti-hFc IgG chip. […] Association was monitored for 300 seconds and dissociation was monitored for 600 seconds. Surfaces were regenerated between cycles with three pulses of 10 mM glycine-HCl, pH 1.7 injected for 20 seconds at 100 μl/min. HBS-EP+ (1×) with 0.1 mg/ml BSA was used as running buffer throughout the experiment. Experiments were performed at physiological temperature of 37° C. To obtain kinetic rate constants and overall binding affinity, double-referenced data were fit to a two-state kinetic model using Biacore 8K Insight Evaluation software (Cytiva)."}, "[5]": {"target": "T2, Human CLEC12A-His (recombinant, K244 WT)", "assay": "SPR, two-state fit; control sample"}, "De-glycosylated CLEC12A": {"target": "T4, De-glycosylated CLEC12A (human, UniProt Q5QGZ9 65-265, treated with PNGase F (N-linked glycans removed))", "T4 construct": "Recombinant human CLEC12A after PNGase F; also called de-glycosylated hCLEC12A", "T4 sequence": "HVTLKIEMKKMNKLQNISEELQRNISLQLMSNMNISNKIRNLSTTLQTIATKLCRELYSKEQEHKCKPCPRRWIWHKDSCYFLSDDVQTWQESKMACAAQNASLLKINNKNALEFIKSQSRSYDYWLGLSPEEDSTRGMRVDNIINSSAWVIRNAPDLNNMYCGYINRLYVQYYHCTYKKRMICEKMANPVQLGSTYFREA", "assay": "SPR, de-glycosylated CLEC12A; average of 3 replicates"}, "[6]": {"target": "T5, recombinant human CLEC12A-His (human, UniProt Q5QGZ9 65-265)", "T5 construct": "also called hCLEC12A-His; hCLEC12A", "T5 sequence": "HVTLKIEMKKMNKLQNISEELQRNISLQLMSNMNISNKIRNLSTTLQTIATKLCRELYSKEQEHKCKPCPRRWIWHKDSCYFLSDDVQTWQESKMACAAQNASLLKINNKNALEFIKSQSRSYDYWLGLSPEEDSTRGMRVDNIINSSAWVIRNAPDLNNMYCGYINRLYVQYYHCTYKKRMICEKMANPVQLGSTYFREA", "assay": "SPR 37C, average"}, "[7]": {"target": "T6, human CLEC12A expressed on cells (human, UniProt Q5QGZ9 1-265)", "T6 construct": "Transduced isogenic cells or endogenous expression on AML cells; also called RMA-hCLEC12A; Ba/F3-hCLEC12A", "T6 sequence": "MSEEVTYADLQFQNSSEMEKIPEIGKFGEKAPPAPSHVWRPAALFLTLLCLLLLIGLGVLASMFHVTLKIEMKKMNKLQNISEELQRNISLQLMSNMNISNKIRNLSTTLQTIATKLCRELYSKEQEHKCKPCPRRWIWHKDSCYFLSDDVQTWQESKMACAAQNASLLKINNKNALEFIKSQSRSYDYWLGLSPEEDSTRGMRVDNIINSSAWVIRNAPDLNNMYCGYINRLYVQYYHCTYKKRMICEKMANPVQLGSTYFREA", "assay": "flow cytometry (gMFI) on CLEC12A+ PL-21 AML cells"}, "recombinant human CD64": {"target": "T7, recombinant human CD64 (human, UniProt P12314 16-288, biotinylated)", "T7 construct": "also called hFcγRI; hCD64", "T7 sequence (P12314 16-288 limits assumed)": "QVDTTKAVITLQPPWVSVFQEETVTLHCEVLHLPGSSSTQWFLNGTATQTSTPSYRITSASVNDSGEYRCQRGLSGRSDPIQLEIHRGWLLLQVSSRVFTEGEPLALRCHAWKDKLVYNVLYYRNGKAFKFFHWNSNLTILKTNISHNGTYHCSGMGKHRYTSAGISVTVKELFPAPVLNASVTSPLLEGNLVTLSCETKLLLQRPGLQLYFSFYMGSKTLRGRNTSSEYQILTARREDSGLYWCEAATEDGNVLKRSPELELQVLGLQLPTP", "assay": "SPR 25C, kinetic fit, average", "experimental": "Human and cyno CD64, high and low affinity alleles of CD16a (V158 and F158, respectively), two alleles of CD32a (H131 and R131), CD16b, CD32b and cynomolgus CD16 were captured via biotin on a primed Biacore chip, prepared according to the manufacturer's instructions.\nFor no-signal reference, a 0 nM blank cycle at the start of each concentration series and receptor free chip surface were used. Each experimental cycle included association, dissociation and regeneration steps. All steps were executed at a flow rate of 30 μL/min and at 25° C."}},
  "data": [
    {"binder": "AB0089 TriNKET (bispecific antibody, human IgG1, kappa, F3' format heterodimer of three chains; human IgG1 Fc with EW-RVT and Y349C/S354C mutations; also called AB0089 Lot AB0089-002; CLEC12A TriNKET AB0089) QLQLQESGPGLVKPSETLSLTCTVSGFSLTNYGLHWIRQPPGKCLEWIGVIWVGGATDYNPSLKSRVTISVDTSKNQFSLKLSSVQAADTAVYYCAKGDYGDTLDYWGQGTLVTVSSGGGGSGGGGSGGGGSGGGGSDIQMTQSPSSLSASVGDRVTITCHASQNINFWLSWYQQKPGKAPKLLIYEASNLHTGVPSRFSGSGSGTDFTLTISSLQPEDFATYYCQQSHSYPLTFGCGTKLEIKGSDKTHTCPPCPAPELLGGPSVFLFPPKPKDTLMISRTPEVTCVVVDVSHEDPEVKFNWYVDGVEVHNAKTKPREEQYNSTYRVVSVLTVLHQDWLNGKEYKCKVSNKALPAPIEKTISKAKGQPREPRVYTLPPCRDELTKNQVSLTCLVKGFYPSDIAVEWESNGQPENNYKTTPPVLVSDGSFTLYSKLTVDKSRWQQGNVFSCSVMHEALHNHYTQKSLSLSPG heavy: EVQLVESGGGLVKPGGSLRLSCAASGFTFSSYSMNWVRQAPGKGLEWVSSISSSSSYIYYADSVKGRFTISRDNAKNSLYLQMNSLRAEDTAVYYCARGAPIGAAAGWFDPWGQGTLVTVSSASTKGPSVFPLAPSSKSTSGGTAALGCLVKDYFPEPVTVSWNSGALTSGVHTFPAVLQSSGLYSLSSVVTVPSSSLGTQTYICNVNHKPSNTKVDKKVEPKSCDKTHTCPPCPAPELLGGPSVFLFPPKPKDTLMISRTPEVTCVVVDVSHEDPEVKFNWYVDGVEVHNAKTKPREEQYNSTYRVVSVLTVLHQDWLNGKEYKCKVSNKALPAPIEKTISKAKGQPREPQVCTLPPSRDELTENQVSLTCLVKGFYPSDIAVEWESNGQPENNYKTTPPVLDSDGSFFLYSWLTVDKSRWQQGNVFSCSVMHEALHNHYTQKSLSLSPG light: DIQMTQSPSSVSASVGDRVTITCRASQGISSWLAWYQQKPGKAPKLLIYAASSLQSGVPSRFSGSGSGTDFTLTISSLQPEDFATYYCQQGVSFPRTFGGGTKVEIKRTVAAPSVFIFPPSDEQLKSGTASVVCLLNNFYPREAKVQWKVDNALQSGNSQESVTEQDSKDSTYSLSSTLTLSKADYEKHKVYACEVTHQGLSSPVTKSFNRGEC", "values": [
      {"measurement": "Kd", "setting": "[1]", "result": 1270, "unit": "nM"},
      {"measurement": "kon", "setting": "[2]", "result": "9.93e+06", "unit": "M⁻¹ s⁻¹"},
      {"measurement": "EC50, KHYG1-CD16aV cytotoxicity assay; after forced oxidation", "setting": "[3]", "result": 0.16, "unit": "nM"},
      {"measurement": "EC50, KHYG1-CD16aV cytotoxicity assay; control sample", "setting": "[3]", "result": 0.11, "unit": "nM"},
      {"measurement": "kon", "setting": "[4]", "result": "7.91e+06", "unit": "M⁻¹ s⁻¹"},
      {"measurement": "Kd", "setting": "[5]", "result": 0.9, "unit": "nM"}
    ]},
    {"binder": "AB0192 TriNKET (other, the condition stands under assay; also called AB0192 Lot AB0192-005) EVQLVESGGGVVQPGGSLRLSCAASGFTFNAFGMHWVRQAPGKCLEWVAFISSGSTSIYYANTVKGRFTISRDNSKNTLYLQMNSLRAEDTAVYYCARDGYPTGGAMDYWGQGTSVTVSSGGGGSGGGGSGGGGSGGGGSDIQMTQSPSSLSASVGDRVTITCKASQDIYNYLSWFQQKPGKAPKPLIYRANILVSGVPSRFSGSGSGQDYTFTISSLQPEDIATYYCLQFDAFPFTFGCGTKLEIKGSDKTHTCPPCPAPELLGGPSVFLFPPKPKDTLMISRTPEVTCVVVDVSHEDPEVKFNWYVDGVEVHNAKTKPREEQYNSTYRVVSVLTVLHQDWLNGKEYKCKVSNKALPAPIEKTISKAKGQPREPRVYTLPPCRDELTKNQVSLTCLVKGFYPSDIAVEWESNGQPENNYKTTPPVLVSDGSFTLYSKLTVDKSRWQQGNVFSCSVMHEALHNHYTQKSLSLSPG heavy: EVQLVESGGGLVKPGGSLRLSCAASGFTFSSYSMNWVRQAPGKGLEWVSSISSSSSYIYYADSVKGRFTISRDNAKNSLYLQMNSLRAEDTAVYYCARGAPIGAAAGWFDPWGQGTLVTVSSASTKGPSVFPLAPSSKSTSGGTAALGCLVKDYFPEPVTVSWNSGALTSGVHTFPAVLQSSGLYSLSSVVTVPSSSLGTQTYICNVNHKPSNTKVDKKVEPKSCDKTHTCPPCPAPELLGGPSVFLFPPKPKDTLMISRTPEVTCVVVDVSHEDPEVKFNWYVDGVEVHNAKTKPREEQYNSTYRVVSVLTVLHQDWLNGKEYKCKVSNKALPAPIEKTISKAKGQPREPQVCTLPPSRDELTENQVSLTCLVKGFYPSDIAVEWESNGQPENNYKTTPPVLDSDGSFFLYSWLTVDKSRWQQGNVFSCSVMHEALHNHYTQKSLSLSPG light: DIQMTQSPSSVSASVGDRVTITCRASQGISSWLAWYQQKPGKAPKLLIYAASSLQSGVPSRFSGSGSGTDFTLTISSLQPEDFATYYCQQGVSFPRTFGGGTKVEIKRTVAAPSVFIFPPSDEQLKSGTASVVCLLNNFYPREAKVQWKVDNALQSGNSQESVTEQDSKDSTYSLSSTLTLSKADYEKHKVYACEVTHQGLSSPVTKSFNRGEC", "values": [
      {"measurement": "Kd", "setting": "De-glycosylated CLEC12A", "result": 0.27, "unit": "nM"},
      {"measurement": "koff", "setting": "De-glycosylated CLEC12A", "result": 0.000348, "unit": "s⁻¹"},
      {"measurement": "kon", "setting": "De-glycosylated CLEC12A", "result": "1.31e+06", "unit": "M⁻¹ s⁻¹"}
    ]},
    {"binder": "F3'-1602 TriNKET (other, CLEC12A scFv-Fc, NKG2D A49MI Fab-Fc, human IgG1 Fc; also called AB0237) QLQLQESGPGLVKPSETLSLTCTVSGFSLTNYGLHWIRQPPGKCLEWIGVIWSGGKTDYNPSLKSRVTISKDTSKNQFSLKLSSVQAADTAVYYCAKYDYDDSLDYWGQGTLVTVSSGGGGSGGGGSGGGGSGGGGSDIQMTQSPSSLSASVGDRVTITCHASQNINFWLSWYQQKPGKAPKLLIYEASNLHTGVPSRFSGSGSGTRFTLTISSLQPEDIATYYCQQSHSYPLTFGCGTKLEIKGSDKTHTCPPCPAPELLGGPSVFLFPPKPKDTLMISRTPEVTCVVVDVSHEDPEVKFNWYVDGVEVHNAKTKPREEQYNSTYRVVSVLTVLHQDWLNGKEYKCKVSNKALPAPIEKTISKAKGQPREPRVYTLPPCRDELTKNQVSLTCLVKGFYPSDIAVEWESNGQPENNYKTTPPVLVSDGSFTLYSKLTVDKSRWQQGNVFSCSVMHEALHNHYTQKSLSLSPG heavy: EVQLVESGGGLVKPGGSLRLSCAASGFTFSSYSMNWVRQAPGKGLEWVSSISSSSSYIYYADSVKGRFTISRDNAKNSLYLQMNSLRAEDTAVYYCARGAPIGAAAGWFDPWGQGTLVTVSSASTKGPSVFPLAPSSKSTSGGTAALGCLVKDYFPEPVTVSWNSGALTSGVHTFPAVLQSSGLYSLSSVVTVPSSSLGTQTYICNVNHKPSNTKVDKKVEPKSCDKTHTCPPCPAPELLGGPSVFLFPPKPKDTLMISRTPEVTCVVVDVSHEDPEVKFNWYVDGVEVHNAKTKPREEQYNSTYRVVSVLTVLHQDWLNGKEYKCKVSNKALPAPIEKTISKAKGQPREPQVCTLPPSRDELTENQVSLTCLVKGFYPSDIAVEWESNGQPENNYKTTPPVLDSDGSFFLYSWLTVDKSRWQQGNVFSCSVMHEALHNHYTQKSLSLSPG light: DIQMTQSPSSVSASVGDRVTITCRASQGISSWLAWYQQKPGKAPKLLIYAASSLQSGVPSRFSGSGSGTDFTLTISSLQPEDFATYYCQQGVSFPRTFGGGTKVEIKRTVAAPSVFIFPPSDEQLKSGTASVVCLLNNFYPREAKVQWKVDNALQSGNSQESVTEQDSKDSTYSLSSTLTLSKADYEKHKVYACEVTHQGLSSPVTKSFNRGEC", "values": [
      {"measurement": "Kd", "setting": "[6]", "result": 0.57, "unit": "nM"},
      {"measurement": "koff", "setting": "[6]", "result": 0.000494, "unit": "s⁻¹"},
      {"measurement": "kon", "setting": "[6]", "result": 844000, "unit": "M⁻¹ s⁻¹"},
      {"measurement": "EC50", "setting": "[7]", "result": 1.2, "unit": "nM"},
      {"measurement": "Kd", "setting": "recombinant human CD64", "result": 5.2, "unit": "nM"},
      {"measurement": "koff", "setting": "recombinant human CD64", "result": 0.00027, "unit": "s⁻¹"},
      {"measurement": "kon", "setting": "recombinant human CD64", "result": 52000, "unit": "M⁻¹ s⁻¹"}
    ]}
  ]
}
